B1: Serine/threonine-protein kinase STE20 (Saccharomyces cerevisiae), Q03497 (parent)
chain: MSNDPSAVSELPDKDSLDNGISNDNERAMGGNGDGGDGLRLPRTTGTLNVNALQKGTNAAHEAGGYKSMDPAKNAETTNDDDNNVVSLDDPIQFTRVSSSSVISGMSSSMSPHSNIDETKSLEAVTPNINTSNITPDHSADNTFSTINASESDHQFNDTLLSKLSLTDSTETIENNATVKHQQPVASSTVNSNKSSTDIRRATPVSTPVISKPSMTTTPRQINSASHSLSNPKHKQHKPKVKPSKPEAKSKPVSVKKSFPSKNPLKNSSPPKKQTEKSYYSSSSKKRKSGSNSGTLRMKDVFTSFVQNIKRNSQDDKRASSSSNNSSSSSITTALRISTPYNAKHIHHVGVDSKTGEYTGLPEEWEKLLTSSGISKREQQQNMQAVMDIVKFYQDVTETNGEDKMFKTFNTTTGLPGSPQVSTPPANSFNKFPPSTSDSHNYGSRTGTPMSNHVMSPTLNTDSSSANGKFIPSRPAPKPPSSASASAPIIKSPVMNSAANVSPLKQTHAPTTPNRTSPNRSSISRNATLKKEEQPLPPIPPTKSKTSPIISTAHTPQQVAQSPKAPAQETVTTPTSKPAQARSLSKELNEKKREERERRKKQLYAKLNEICSDGDPSTKYANLVKIGQGASGGVYTAYEIGTNVSVAIKQMNLEKQPKKELIINEILVMKGSKHPNIVNFIDSYVLKGDLWVIMEYMEGGSLTDVVTHCILTEGQIGAVCRETLSGLEFLHSKGVLHRDIKSDNILLSMEGDIKLTDFGFCAQINELNLKRTTMVGTPYWMAPEVVSRKEYGPKVDIWSLGIMIIEMIEGEPPYLNETPLRALYLIATNGTPKLKEPENLSSSLKKFLDWCLCVEPEDRASATELLHDEYITEIAEANSSLAPLVKLARLKKVAENMDADEDNDDDNDNEHINKTNNCDDNNDSKETVNLDVTEDDKQK

Variants of: B1
Conditions: with cdc42_yeast CDC42, P19073
Sequence of cdc42_yeast CDC42, P19073 (P19073 whole entry): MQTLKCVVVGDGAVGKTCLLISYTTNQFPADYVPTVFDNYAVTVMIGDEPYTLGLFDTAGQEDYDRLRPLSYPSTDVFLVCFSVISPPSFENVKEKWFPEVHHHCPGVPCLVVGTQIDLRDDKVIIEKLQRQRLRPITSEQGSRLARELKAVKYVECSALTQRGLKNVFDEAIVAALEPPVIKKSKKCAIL
For S338A;H345G, the “effect of a mutation on the interaction” value was “decreasing interaction”.

Source: IntAct's records for PubMed 11940652
